Patent publication US20260234276A1 (DOMAIN THERAPEUTICS, published 2026)

Key:
streptavidin = target: T1, streptavidin (UniProt P22629 37-163, limits assumed); assay: ELISA, soluble Fab on streptavidin-coated control well without peptide
T1 construct: control well without peptide
Method: (§1) The wells of a microtiter plate were coated with 200 ng streptavidin protein in 100 μL Coating Buffer (0.1 M NaHCO₃, pH 8.6), and then incubated overnight at 4° C. For negative control, the wells were coated with PBS to determine non-specific binding. After shaking out the coating solution, the wells were washed three times with washing buffer (0.1% Tween 20-PBS). To prevent non-specific binding, 200 μL Blocking Buffer (3% BSA-PBS) was adding and incubated for 2 h at 37° C. After shaking out the blocking buffer, the wells were incubated with 50 ng biotinylated target peptide (SEQ ID NO: 420; see Example 10) in 100 μL Blocking Buffer for 1 h at 37° C. The control well was incubated with only 100 μL Blocking Buffer for 1 h at 37° C. After shaking out the biotinylated target peptide or buffer solution, the wells were washed 3 times with the washing buffer (0.1% Tween 20-PBS). Then 100 μL supernatant containing soluble Fab were added and incubated for 2 h at 37° C. Following three washes with washing buffer (0.1% Tween 20-PBS) for 3 times, 100 μL/well HRP conjugate of mouse anti-Flag tag mAb (Sigma A8592, 1:5000) diluted in Blocking Buffer were added and incubated for 1 h at 37° C. After washings, 3,3′,5,5′-tetramethylbenzidine (TMB) (Sigma) were added for 5 to 30 min at room temperature. The reaction was stopped by adding 50 μL/well of 1 M H₂SO₄.

[1] = target: T2, biotinylated CCR8 peptide (human, N-terminal biotin); assay: ELISA, soluble Fab on biotinylated CCR8 peptide captured on streptavidin
T2 construct: first 34 residues of human CCR8 plus a C-terminal K; also called biotinylated target peptide
Method: as §1

T1 sequence (P22629 37-163 limits assumed): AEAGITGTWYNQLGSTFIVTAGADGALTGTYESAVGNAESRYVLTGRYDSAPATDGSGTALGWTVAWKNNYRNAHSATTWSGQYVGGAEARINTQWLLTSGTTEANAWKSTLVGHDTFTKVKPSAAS

B1: 3-57 (Fab, V domains shown)
VH: QMQLVQSGAEVKKPGASVKVSCKASGYTFTSYYMHWVRQAPGQGLEWMGIINPSGGSTSYAQKFQGRVTMTRDTSTSTVYMELSSLRSEDTAVYYCARAGVRGVFGMDVWGKGTLVTVSS
VL: QSALTQPASVSGSPGQSITISCTGTSSDLGAYNYVSWYQQHPGKAPRLMIYDVSKRPSGVPDRFSGSKSDNTASLTISGLQAEDEADYYCSSYTSSSTLVFGGGTKVTVLS
notes: soluble Fab from phage display library huFabL-4, Flag tag
For B1, the “Optical Density” value (streptavidin) was 0.1 OD450 and the “Optical Density” value [1] was 2.39 OD450.

B2: 3-67 (Fab, V domains shown)
VH: QVQLQQSGPGLVKPSQTLSLTCAISGDSVSSNSAAWNWIRQSPSRGLEWLGRTYYRSKWYNDYAVSVKSRITINPDTSKNQFSLQLNSVTPEDTAVYYCARAARLGMDVWGKGTMVTVSS
VL: QSVVTQPPSVSAAPGQKVTISCSGTSFNIGNNYVSWYQQLPGTAPKLLIYDNIRRPSGIPERFSGSKSGTSATLGITGLQTGDEADYYCGTWDSSLRAYVFGTGTKLTVLG
notes: as for B1
In the case of B2, the “Optical Density” value (streptavidin) is reported as 0.06 OD450 and the “Optical Density” value [1] is reported as 2.23 OD450.

B3: 3-69 (Fab, V domains shown)
VH: QVQLQQSGPGLVKPSQTLSLTCAISGDSVSSNSAAWNWIRQSPSRGLEWLGRTYYRSKWYNDYAVSVKSQITINPDTSKNQFSLQLNSVTPEDTAVYYCAREQFSGMDVWGRGTLVTVSS
VL: QSVLTQPPSASGTPGQRVTISCSGSSSNIGRNYVYWYQQLPGTAPKLLTDSNNQRPSGVPDRFSASKSGTSASLAISGLRSEDEADYYCAAWDGSLRGRVFGGGTKMTVLG
notes: as for B1
For B3, the “Optical Density” value (streptavidin) was 0.07 OD450 and the “Optical Density” value [1] was 2.67 OD450.

B4: 3-61 (Fab, V domains shown)
VH: QVQLVESGAEVKKPGASVKVSCKASGYTFTSYYMHWVRQAPGQGLEWMGIINPSGGGTKYAQSLQGRVTMTRDTSTSTVYMELNSLTSEDTAVYYCARGGTPSGLDYWGKGTLVTVSS
VL: DIQMTQSPSSLSASVGDRVTITCRASQGISNYLAWYQQKPGKVPKLLIYAASTLQSGVPSRFSGSGSGTDFTLTISSLQPEDVATYYCQKYNSAPLTFGGGTKVEIKR
notes: as for B1
For B4, the “Optical Density” value (streptavidin) was 0.06 OD450 and the “Optical Density” value [1] was 2.43 OD450.

B5: 3-56 (Fab, V domains shown)
VH: EVQLVQSGGGVVQPGRSLRLSCAASGFTFSTYGMHWVRQAPGKGLEWVAVISYDGSKKYYADSVKGRFTISRDNSRNTVYLQMDSLRSEDTAVYYCAKDLSWPVRRLDVWGKGTMVTVSS
VL: EIVLTQSPLSLPVTLGQPASISCRSSQSLVYSTGNTYLNWFHQRPGQSPRRLIYQVSNRDSGVPDRFSGSGSGTDFTLKISRVEADDVGVYYCMQGTHWPPTFGQGTKVEIKR
notes: as for B1
B5 was tested, and the “Optical Density” value (streptavidin) was 0.08 OD450 and the “Optical Density” value [1] was 2.35 OD450.

B6: 3-59 (Fab, V domains shown)
VH: GVQLVQSGGGLVQPGGSLRLSCAASGFTFSSYSMNWVRQAPGKGLEWVAVISYDESNKYYADSVKGRFTISRDNSKNTLYLQMNSLRAEDTAVYYCAPGGSYHDYWGKGTLVTVSS
VL: EIVLTQSPLSLPVTLGQPASISCRSSQSLAHSNGNTYLNWFQQRPGQSPRRLIYKVSNRDSGVPDRFSGSGSGTDFTLKISRVEADDVGVYYCMQGSHWPPTFGQGTKVEIKR
notes: as for B1
In the case of B6, the “Optical Density” value (streptavidin) is reported as 0.06 OD450 and the “Optical Density” value [1] is reported as 1.4 OD450.

B7: 3-55 (Fab, V domains shown)
VH: QVQLQQSGPGLVKPSQTLSLTCAISGDSVSSSTAAWNWIRLSPSRGLEWLGRTYYRSKWYNDYAVSVKSRINISPDTSKNQFSLQLNSVTPEDTGVYYCARGYSRSMDVWGKGTLVTVSS
VL: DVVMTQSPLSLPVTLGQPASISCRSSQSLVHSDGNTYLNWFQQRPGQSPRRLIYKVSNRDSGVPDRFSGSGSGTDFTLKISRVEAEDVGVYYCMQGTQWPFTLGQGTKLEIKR
notes: as for B1
B7 was tested, and the “Optical Density” value (streptavidin) was 0.07 OD450 and the “Optical Density” value [1] was 2.34 OD450.

B8: 3-74 (Fab, V domains shown)
VH: EVQLVQSGGGVVQPGRSLRLSCAASGFTFSNYGMHWVRQAPGKGLEWVAIISDDGSNRYYGDSVKGRFTISRDNSKNTLYLQMNSLRAEDTAVYYCAKSLTTSYYYGMDVWGKGTLVTVSS
VL: QSALTQPPSASGSPGQSVTISCTGTSSDIGGYIYVSWYQQHPGKAPKLIIYEVHKRPSGVSNRFSASKSANTASLTISGLQAEDEADYYCSSYSSSRTVLFGGGTKLTVLG
notes: as for B1
B8 was tested, and the “Optical Density” value (streptavidin) was 0.09 OD450 and the “Optical Density” value [1] was 2.81 OD450.

B9: 3-54 (Fab, V domains shown)
VH: QVQLVQSGAEVKKPGASVKVSCKASGYTFSGYYIHWVRQAPGQGLEWMGWINPNSGGTNYAQNFQGRVTMTRDTSISTAYMELSRLRSDDTAMYYCARGNGAMDVWGRGTLVTVSS
VL: DVVMTQSPLSLPVTSGKPASISCRSSQSLLHSNGYNYLDWYLQKPGQSPQLLIYLGSNRASGVPDRFSGSGSGTDFTLKISRVEAEDVGVYYCMQGTYWPRTFGQGTKVEIKR
notes: as for B1
In the case of B9, the “Optical Density” value (streptavidin) is reported as 0.08 OD450 and the “Optical Density” value [1] is reported as 2.76 OD450.

B10: 3-75 (Fab, V domains shown)
VH: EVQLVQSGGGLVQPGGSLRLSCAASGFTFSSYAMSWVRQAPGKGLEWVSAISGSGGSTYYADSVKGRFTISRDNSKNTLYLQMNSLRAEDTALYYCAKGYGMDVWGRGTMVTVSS
VL: LPMLTQPPSVSGTPGQRVTISCSGSTSNIGSRPVNWYQQLPGTAPKLLIYRNYQRPSGVPDRFSGSKSGTSASLAISGLRSEDEADYYCAAWDDSLSGWVFGGGTKLTVLG
notes: as for B1
With B10 the “Optical Density” value (streptavidin) was 0.08 OD450 and the “Optical Density” value [1] was 3.67 OD450.

B11: 3-72 (Fab, V domains shown)
VH: QVTLKESGGGVVQPGRSLRLSCAASGFTFSSYAMHWVRQAPGKGLEWVAVISYDGSNKYYADSVKGRFTISRDNSKNTLYLQMNSLRAEDTAVYYCASSLLGAFDVWGKGTLVTVSS
VL: DVVMTQSPLSLPVTPGEPASISCRSSQSLLHSNGYNYLSWYLQRPGQSPQLLMYLGSKRASGVPDRFSGSGSGTDFTLEISRVEAEDVGIYYCMQALQTPLTFGGGTKVEIKR
notes: as for B1
B11 was tested, and the “Optical Density” value (streptavidin) was 0.09 OD450 and the “Optical Density” value [1] was 3.26 OD450.

B12: 3-60 (Fab, V domains shown)
VH: QVQLVQSGGGVVQPGRSLRLSCAASGFTFSSYAMHWVRQAPGKGLEWVAVISYDGSNKYYADSVKGRFTISRDNAKNSLYLQMNSLRAEDTAVYYCAREQAARPTLGAFDIWGKGTTVTVSS
VL: DVVMTQSPLSLPVTPGEPASISCRSSQSLLHSNGNNYLAWYLQKPGQSPQLLMYLGSNRASGVPDRFSGSGSGTDFTLKISRVEAEDVGVYYCMQGIHLPLTFGGGTKVEIKR
notes: as for B1
For B12, the “Optical Density” value (streptavidin) was 0.06 OD450 and the “Optical Density” value [1] was 3.66 OD450.

B13: 3-71 (Fab, V domains shown)
VH: QVQLQESGGGLVKPGRSLRLSCTASGFTFSSYAMSWVRQAPGKGLEWVSVNSGSGGTTYYADSVKGRFTISRDNAKNTLYLQMNSLRAEDTAVYYCARVSRYYDILTGYVYAFDIWGKGTLVTVSS
VL: QSVVTQPPSVSAAPGQKVSISCSGSSSNIGKNYVSWYQQLPGTAPKLLIYDNNKRPSGIPDRFSGSKSGTSATLGITGLQAEDEADYYCQSYDRSLGVVFGGGTKLTVLG
notes: as for B1
For B13, the “Optical Density” value (streptavidin) was 0.08 OD450 and the “Optical Density” value [1] was 2.4 OD450.

B14: 3-68 (Fab, V domains shown)
VH: QVQLQQSGPGLVKPSQTLSLTCAISGDSVSRNTAAWNWIRQSPSRGLEWLGRTYYRSKWYNDYAVSVKSRITIRPDTSKNQISLQLTSVTPEDTAVYYCARGVHNAFDIWGRGTMVTVSS
VL: ETTLTQSPGTLSLSPGERATLSCRASQSVGNRYLAWYQQKPGQAPRLLIYGASSRATGIPDRFSGSGSGTDFTLTISRLEPEDFAVYYCQQYSGSTGYTFGQGTKLEIKR
notes: as for B1
For B14, the “Optical Density” value (streptavidin) was 0.06 OD450 and the “Optical Density” value [1] was 3.64 OD450.

B15: 3-73 (Fab, V domains shown)
VH: QVQLQQSGPGLVKPSQTLSLTCAISGDSVSSSTAAWNWIRQSPSRGLEWLGRTYYRSKWYNDYAVSVKSRITINPDTSKNQFSLQLNSVTPEDTAVYYCARAEAGGRFDYWGQGTLVTVSS
VL: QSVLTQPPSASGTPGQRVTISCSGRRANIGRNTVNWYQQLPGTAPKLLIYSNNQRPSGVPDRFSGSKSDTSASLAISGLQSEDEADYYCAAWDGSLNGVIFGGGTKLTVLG
notes: as for B1
In the case of B15, the “Optical Density” value (streptavidin) is reported as 0.07 OD450 and the “Optical Density” value [1] is reported as 2.27 OD450.

B16: 3-62 (Fab, V domains shown)
VH: QVQLQQSGPGLVKPSQTLSLTCAISGDSVSNNSAAWNWIRQSPSRGLEWLGRTYYRSKWYTDYAVSVKSRITINPDTSKNQFSLQLNSVTPEDTAVYYCARASGYSSGQVEYWGKGTLVTVSS
VL: QSVLTQPPSVSAAPGQKVTISCSGSSSNIGNNYISWYQQVPGTAPKLLIYGNNKRPSGIPARFSGSKSGTSATLDITGLQIGDEADYYCGTWESSLRAVVFGGGTKLTVLG
notes: as for B1
B16 was tested, and the “Optical Density” value (streptavidin) was 0.07 OD450 and the “Optical Density” value [1] was 3.6 OD450.
